Assay results published in patent publication US20200024330A1.

Assays:
[1] = target: HIV-1 JR-CSF Env K421A (HIV-1 (isolate JR-CSF)) (UniProt P20871); test: cell-based or functional assay
[2] = target: HIV-1 JR-CSF Env T413A (HIV-1 (isolate JR-CSF)) (UniProt P20871); test: cell-based or functional assay
[3] = target: HIV-1 Env of isolate JR-CSF (HIV-1) (UniProt P20871); test: cell-based or functional assay
[4] = target: HIV-1 JR-CSF Env T297A (HIV-1 JR-CSF) (UniProt P20871); test: cell-based or functional assay
[5] = target: HIV-1 JR-CSF Env T388A (HIV-1 (isolate JR-CSF)) (UniProt P20871); test: cell-based or functional assay
[6] = target: HIV-1 JR-CSF Env P299A (HIV-1 JR-CSF) (UniProt P20871); test: cell-based or functional assay
[7] = target: Env of the clade AG HIV-1 pseudoviruses of the cross-clade 162-pseudovirus panel (n = 10); test: cell-based or functional assay
[8] = target: Env of the clade A HIV-1 pseudoviruses of the cross-clade 162-pseudovirus panel (n = 26); test: cell-based or functional assay
[9] = target: Env of the clade F HIV-1 pseudoviruses of the cross-clade 162-pseudovirus panel (n = 15); test: cell-based or functional assay
[10] = target: HIV-1 JR-CSF Env N262A (HIV-1 JR-CSF) (UniProt P20871); test: cell-based or functional assay
[11] = target: HIV-1 JR-CSF Env S306A (HIV-1 JR-CSF) (UniProt P20871); test: cell-based or functional assay
[12] = target: HIV-1 JR-CSF Env N386A (HIV-1 isolate JR-CSF) (UniProt P20871); test: cell-based or functional assay
[13] = target: HIV-1 JR-CSF Env N295A (HIV-1 JR-CSF) (UniProt P20871); test: cell-based or functional assay
[14] = target: HIV-1 JR-CSF Env E321aA (HIV-1 isolate JR-CSF) (UniProt P20871); test: cell-based or functional assay
[15] = target: HIV-1 JR-CSF Env F317A (HIV-1 isolate JR-CSF) (UniProt P20871); test: cell-based or functional assay
[16] = target: HIV-1 Env of isolate MGRM-C-026 (HIV-1); test: cell-based or functional assay
[17] = target: HIV-1 JR-CSF Env N276A (HIV-1 JR-CSF) (UniProt P20871); test: cell-based or functional assay
[18] = target: HIV-1 Env of isolate 92TH021 (HIV-1); test: cell-based or functional assay
[19] = target: HIV-1 JR-CSF Env I323A (HIV-1 isolate JR-CSF) (UniProt P20871); test: cell-based or functional assay
[20] = target: HIV-1 JR-CSF Env T320A (HIV-1 isolate JR-CSF) (UniProt P20871); test: cell-based or functional assay
[21] = target: HIV-1 JR-CSF Env K343A (HIV-1 isolate JR-CSF) (UniProt P20871); test: cell-based or functional assay
[22] = target: HIV-1 JR-CSF Env N339A (HIV-1 isolate JR-CSF) (UniProt P20871); test: cell-based or functional assay
[23] = target: HIV-1 JR-CSF Env N392Q (HIV-1 (isolate JR-CSF)) (UniProt P20871); test: cell-based or functional assay
[24] = target: HIV-1 JR-CSF Env R419A (HIV-1 (isolate JR-CSF)) (UniProt P20871); test: cell-based or functional assay
[25] = target: HIV-1 JR-CSF Env N301A (HIV-1 JR-CSF) (UniProt P20871); test: cell-based or functional assay
[26] = target: HIV-1 JR-CSF Env P313A (HIV-1 JR-CSF) (UniProt P20871); test: cell-based or functional assay
[27] = target: Env of all HIV-1 pseudoviruses of the cross-clade 162-pseudovirus panel (n = 162); test: cell-based or functional assay
[28] = target: HIV-1 JR-CSF Env D325A (HIV-1 isolate JR-CSF) (UniProt P20871); test: cell-based or functional assay
[29] = target: HIV-1 JR-CSF Env I420A (HIV-1 (isolate JR-CSF)) (UniProt P20871); test: cell-based or functional assay
[30] = target: HIV-1 JR-CSF Env N302A (HIV-1 JR-CSF) (UniProt P20871); test: cell-based or functional assay
[31] = target: HIV-1 JR-CSF Env S199A (HIV-1 JR-CSF) (UniProt P20871); test: cell-based or functional assay
[32] = target: HIV-1 JR-CSF Env T303A (HIV-1 JR-CSF) (UniProt P20871); test: cell-based or functional assay
[33] = target: HIV-1 JR-CSF Env N241A (HIV-1 JR-CSF) (UniProt P20871); test: cell-based or functional assay
[34] = target: Env of the clade G HIV-1 pseudoviruses of the cross-clade 162-pseudovirus panel (n = 15); test: cell-based or functional assay
[35] = target: HIV-1 JR-CSF Env N332A (HIV-1 isolate JR-CSF) (UniProt P20871); test: cell-based or functional assay
[36] = target: HIV-1 JR-CSF Env I424A (HIV-1 (isolate JR-CSF)) (UniProt P20871); test: cell-based or functional assay
[37] = target: HIV-1 JR-CSF Env T394A (HIV-1 (isolate JR-CSF)) (UniProt P20871); test: cell-based or functional assay
[38] = target: WT JR-FL gp120 (HIV-1 (isolate JR-FL)); test: ELISA on coated gp120; EC50 by nonlinear regression
[39] = target: JR-FL gp120 ΔV1/ΔV2 (HIV-1 (isolate JR-FL)); test: as above

B1: PGT-126 (antibody, V domains shown)
VH: QPQLQESGPGLVEASETLSLTCTVSGDSTAACDYFWGWVRQPPGKGLEWIGGLSHCAGYYNTGWTYHNPSLKSRLTISLDTPKNQVFLKLNSVTAADTAIYYCARFDGEVLVYHDWPKPAWVDLWGRGTLVTVSS
VL: QSALTQPPSASGSPGQSISISCTGTSNRFVSWYQQHPGKAPKLVIYGVNKRPSGVPDRFSGSKSGNTASLTVSGLQTDDEAVYYCSSLVGNWDVIFGGGTKLTVL
[1]
  Fold IC50 increase relative to wild-type: 0.7 fold
[2]
  Fold IC50 increase relative to wild-type: 0.7 fold
[3]
  Polyclonal Transfectant Neutralization Index (well 5141 B17): 102
  Primary Neutralization Index (B cell culture well 5141 B17): 1410
[4]
  Fold IC50 increase relative to wild-type: 0.8 fold
[5]
  Fold IC50 increase relative to wild-type: 0.6 fold
[6]
  Fold IC50 increase relative to wild-type: 0.2 fold
[7]
  Median IC50 against viruses neutralized with an IC50 <50 µg/ml: 0.03 µg/mL
[8]
  Median IC50 against viruses neutralized with an IC50 <50 µg/ml: 0.01 µg/mL
[9]
  Median IC50 against viruses neutralized with an IC50 <50 µg/ml: 0.05 µg/mL
[10]
  Fold IC50 increase relative to wild-type: 1 fold
[11]
  Fold IC50 increase relative to wild-type: 0.7 fold
[12]
  Fold IC50 increase relative to wild-type: 0.9 fold
[13]
  Fold IC50 increase relative to wild-type: 0.9 fold
[14]
  Fold IC50 increase relative to wild-type: 0.6 fold
[15]
  Fold IC50 increase relative to wild-type: 1 fold
[16]
  Polyclonal Transfectant Neutralization Index (well 5141 B17): 102
  Primary Neutralization Index (B cell culture well 5141 B17): 654
[17]
  Fold IC50 increase relative to wild-type: 0.9 fold
[18]
  IC50 (µg/mL), pseudovirus neutralization: 0.197 µg/mL
  Polyclonal Transfectant Neutralization Index (well 5141 B17): 2.74
  Primary Neutralization Index (B cell culture well 5141 B17): 2.3
[19]
  Fold IC50 increase relative to wild-type: 0.9 fold
[20]
  Fold IC50 increase relative to wild-type: 0.6 fold
[21]
  Fold IC50 increase relative to wild-type: 1.2 fold
[22]
  Fold IC50 increase relative to wild-type: 0.6 fold
[23]
  Fold IC50 increase relative to wild-type: 1.6 fold
[24]
  Fold IC50 increase relative to wild-type: 1.2 fold
[25]
  Fold IC50 increase relative to wild-type: 314 fold
[26]
  Fold IC50 increase relative to wild-type: 0.4 fold
[27]
  Median IC50 against viruses neutralized with an IC50 <50 µg/ml: 0.04 µg/mL
[28]
  Fold IC50 increase relative to wild-type: 0.5 fold
[29]
  Fold IC50 increase relative to wild-type: 0.6 fold
[30]
  Fold IC50 increase relative to wild-type: 0.9 fold
[31]
  Fold IC50 increase relative to wild-type: 0.8 fold
[32]
  Fold IC50 increase relative to wild-type: > 250 fold
[33]
  Fold IC50 increase relative to wild-type: 0.6 fold
[34]
  Median IC50 against viruses neutralized with an IC50 <50 µg/ml: 0.18 µg/mL
[35]
  Fold IC50 increase relative to wild-type: 181 fold
[36]
  Fold IC50 increase relative to wild-type: 0.4 fold
[37]
  Fold IC50 increase relative to wild-type: 0.6 fold
[38]
  EC50: 0.1 µg/mL
[39]
  EC50: 0.3 µg/mL

B2: PGT-127 (antibody, V domains shown)
VH: QPQLQESGPGLVEASETLSLTCTVSGDSTGRCNYFWGWVRQPPGKGLEWIGSLSHCRSYYNTDWTYHNPSLKSRLTISLDTPKNQVFLRLTSVTAADTATYYCARFGGEVLVYRDWPKPAWVDLWGRGTLVVTVS
VL: QSALTQPPSASGSPGQSITISCTGTSNNFVSWYQQYPGKAPKLVIYEVNKRPSGVPDRFSGSKSGSTASLTVSGLQADDEGVYYCSSLVGNWDVIFGGGTKLTVL
[1]
  Fold IC50 increase relative to wild-type: 1.5 fold
[2]
  Fold IC50 increase relative to wild-type: 0.8 fold
[3]
  Polyclonal Transfectant Neutralization Index (well 5145 B14): 1.61
  Primary Neutralization Index (B cell culture well 5145 B14): 31.1
[4]
  Fold IC50 increase relative to wild-type: 1.7 fold
[5]
  Fold IC50 increase relative to wild-type: 0.5 fold
[6]
  Fold IC50 increase relative to wild-type: 0.2 fold
[7]
  Median IC50 against viruses neutralized with an IC50 <50 µg/ml: 0.04 µg/mL
[8]
  Median IC50 against viruses neutralized with an IC50 <50 µg/ml: 0.02 µg/mL
[9]
  Median IC50 against viruses neutralized with an IC50 <50 µg/ml: 0.65 µg/mL
[10]
  Fold IC50 increase relative to wild-type: 1.4 fold
[11]
  Fold IC50 increase relative to wild-type: 0.6 fold
[12]
  Fold IC50 increase relative to wild-type: 0.6 fold
[13]
  Fold IC50 increase relative to wild-type: 2.3 fold
[14]
  Fold IC50 increase relative to wild-type: 1.9 fold
[15]
  Fold IC50 increase relative to wild-type: 0.2 fold
[16]
  Polyclonal Transfectant Neutralization Index (well 5145 B14): 2.62
  Primary Neutralization Index (B cell culture well 5145 B14): 86.9
[17]
  Fold IC50 increase relative to wild-type: 1.6 fold
[18]
  IC50 (µg/mL), pseudovirus neutralization: > 50 µg/mL
  Polyclonal Transfectant Neutralization Index (well 5145 B14): 0.94
  Primary Neutralization Index (B cell culture well 5145 B14): 1
[19]
  Fold IC50 increase relative to wild-type: 4 fold
[20]
  Fold IC50 increase relative to wild-type: 1.8 fold
[21]
  Fold IC50 increase relative to wild-type: 1 fold
[22]
  Fold IC50 increase relative to wild-type: 1.1 fold
[23]
  Fold IC50 increase relative to wild-type: 1.1 fold
[24]
  Fold IC50 increase relative to wild-type: 2.5 fold
[25]
  Fold IC50 increase relative to wild-type: > 250 fold
[26]
  Fold IC50 increase relative to wild-type: 1.3 fold
[27]
  Median IC50 against viruses neutralized with an IC50 <50 µg/ml: 0.08 µg/mL
[28]
  Fold IC50 increase relative to wild-type: 0.93 fold
[29]
  Fold IC50 increase relative to wild-type: 1.8 fold
[30]
  Fold IC50 increase relative to wild-type: 3 fold
[31]
  Fold IC50 increase relative to wild-type: 3 fold
[32]
  Fold IC50 increase relative to wild-type: > 500 fold
[33]
  Fold IC50 increase relative to wild-type: 0.6 fold
[34]
  Median IC50 against viruses neutralized with an IC50 <50 µg/ml: 0.22 µg/mL
[35]
  Fold IC50 increase relative to wild-type: > 100 fold
[36]
  Fold IC50 increase relative to wild-type: 2 fold
[37]
  Fold IC50 increase relative to wild-type: 1.6 fold
[38]
  EC50: 0.1 µg/mL
[39]
  EC50: 0.7 µg/mL
